Data taken from the supplement of paper PMC9112550, “Optimization of the antimicrobial peptide Bac7 by deep mutational scanning” (BMC Biology, 2022).

The sequences below were run on Escherichia coli TOP10 (assay: shrunken log2 fold change of peptide-encoding DNA abundance (4.5 h post-induction vs induction); higher = less antimicrobial activity (less host growth inhibition)). Conditions: time post-induction: 4.5 h; library: site-saturation at positions 5, 18, 19, 20.
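Note: peptides expressed intracellularly from a pBAD plasmid library in pooled LB shake-flask culture, induced with 0.3% L-arabinose, DNA abundance read by NGS, three biological replicates, DESeq2 with apeglm shrinkage.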

Row | Sequence | shrunken log2 fold change
1 | RRIRPRPPRLPRPRPRPMDGPRP | 0.214
2 | RRIRDRPPRLPRPRPRPRFIPRP | -0.233
3 | RRIRWRPPRLPRPRPRPKKLPRP | -0.0343
4 | RRIRRRPPRLPRPRPRPLNDPRP | 0.0468
5 | RRIRDRPPRLPRPRPRPPDVPRP | 0.302
6 | RRIRTRPPRLPRPRPRPKIMPRP | -0.519
7 | RRIRRRPPRLPRPRPRPDAMPRP | 0.336
8 | RRIRIRPPRLPRPRPRPQQGPRP | -0.295
9 | RRIRKRPPRLPRPRPRPGPCPRP | 0.393
10 | RRIRMRPPRLPRPRPRPPHSPRP | 0.851
11 | RRIRHRPPRLPRPRPRPSPCPRP | -0.225
12 | RRIRMRPPRLPRPRPRPWCKPRP | 0.0317
13 | RRIRPRPPRLPRPRPRPVKDPRP | -0.0309
14 | RRIRDRPPRLPRPRPRPILIPRP | -0.0335
15 | RRIRWRPPRLPRPRPRPGDLPRP | 0.0106
16 | RRIRIRPPRLPRPRPRPDVCPRP | -0.225
17 | RRIRIRPPRLPRPRPRPVSYPRP | -0.599
18 | RRIRWRPPRLPRPRPRPEYCPRP | 1.23
19 | RRIRCRPPRLPRPRPRPARYPRP | -0.438
20 | RRIRDRPPRLPRPRPRPQMWPRP | -0.23
21 | RRIRKRPPRLPRPRPRPQRLPRP | 0.308
22 | RRIRGRPPRLPRPRPRPTMYPRP | 0.032
23 | RRIRARPPRLPRPRPRPWKPPRP | 4.26e-05
24 | RRIRKRPPRLPRPRPRPIPIPRP | 0.136
25 | RRIRPRPPRLPRPRPRPQCQPRP | 0.00656

Row | Sequence | shrunken log2 fold change
26 | RRIRGRPPRLPRPRPRPQWHPRP | 0.0863
27 | RRIRNRPPRLPRPRPRPNKSPRP | -0.338
28 | RRIRCRPPRLPRPRPRPQGQPRP | 0.155
29 | RRIRLRPPRLPRPRPRPTKPPRP | 0.0884
30 | RRIRDRPPRLPRPRPRPYRRPRP | -0.0062
31 | RRIRCRPPRLPRPRPRPVGPPRP | 0.326
32 | RRIRTRPPRLPRPRPRPWICPRP | 0.0207
33 | RRIRERPPRLPRPRPRPNMFPRP | -0.615
34 | RRIRTRPPRLPRPRPRPQEHPRP | -0.0662
35 | RRIRMRPPRLPRPRPRPRTAPRP | 1.29
36 | RRIRHRPPRLPRPRPRPQFMPRP | -0.864
37 | RRIRWRPPRLPRPRPRPHLHPRP | -0.043
38 | RRIRTRPPRLPRPRPRPHDSPRP | -0.229
39 | RRIRARPPRLPRPRPRPRRIPRP | -0.0273
40 | RRIRLRPPRLPRPRPRPWWLPRP | -0.0334
41 | RRIRPRPPRLPRPRPRPLVQPRP | -0.0898
42 | RRIRERPPRLPRPRPRPFGEPRP | -0.122
43 | RRIRHRPPRLPRPRPRPFGHPRP | -0.233
44 | RRIRFRPPRLPRPRPRPMEYPRP | 0.0429
45 | RRIRFRPPRLPRPRPRPSYYPRP | -1.07
46 | RRIRQRPPRLPRPRPRPNKSPRP | -0.202
47 | RRIRSRPPRLPRPRPRPYHIPRP | -0.845
48 | RRIRARPPRLPRPRPRPSFMPRP | 0.0496
49 | RRIRGRPPRLPRPRPRPCKAPRP | 0.377
50 | RRIRARPPRLPRPRPRPGGDPRP | 0.604

Row | Sequence | shrunken log2 fold change
51 | RRIRCRPPRLPRPRPRPHMWPRP | -0.555
52 | RRIRLRPPRLPRPRPRPKWKPRP | 0.0281
53 | RRIRSRPPRLPRPRPRPTVQPRP | -0.204
54 | RRIRNRPPRLPRPRPRPWHCPRP | -0.116
55 | RRIRYRPPRLPRPRPRPQPIPRP | -0.397
56 | RRIRFRPPRLPRPRPRPNYAPRP | -0.127
57 | RRIRYRPPRLPRPRPRPYYQPRP | -0.462
58 | RRIRMRPPRLPRPRPRPVKVPRP | 0.0321
59 | RRIRKRPPRLPRPRPRPQAYPRP | -0.216
60 | RRIRPRPPRLPRPRPRPIQSPRP | -0.083
61 | RRIRARPPRLPRPRPRPKKWPRP | 0.0405
62 | RRIRPRPPRLPRPRPRPGNTPRP | -0.241
63 | RRIRSRPPRLPRPRPRPQGSPRP | -0.00511
64 | RRIRFRPPRLPRPRPRPGGGPRP | 0.727
65 | RRIRFRPPRLPRPRPRPWPDPRP | 0.0228
66 | RRIRHRPPRLPRPRPRPDWWPRP | 0.0937
67 | RRIRFRPPRLPRPRPRPMSQPRP | 0.0397
68 | RRIRERPPRLPRPRPRPLRPPRP | 0.889
69 | RRIRPRPPRLPRPRPRPHSDPRP | 0.0137
70 | RRIRIRPPRLPRPRPRPMVKPRP | -0.0157
71 | RRIRNRPPRLPRPRPRPGPHPRP | 0.0143
72 | RRIRKRPPRLPRPRPRPIKVPRP | -0.386
73 | RRIRVRPPRLPRPRPRPLLWPRP | 0.145
74 | RRIRTRPPRLPRPRPRPCSWPRP | 0.0291
75 | RRIRGRPPRLPRPRPRPYNQPRP | -0.104
